# Measured values: article PMC6853987, “ClpP protease activation results from the reorganization of the electrostatic interaction networks at the entrance pores” (Communications Biology, 2019)
# B1: Neisseria meningitidis ClpP (NmClpP), wild type (enzyme)
# chain: not shown
# notes: ClpP, N. meningitidis MC58; expressed full length with N-terminal His6 tag and TEV site; also called apo-NmClpP; WT NmClpP; not shown: His6, N-terminal, cleaved; copies: 14
# B2: Escherichia coli ClpP (EcClpP), wild type (enzyme)
# chain: not shown
# notes: ClpP protease proteolytic subunit, E. coli; Crystallised with the small molecule ACP1-06; An unexplained density extends from S111 in the structure (possible covalent modification, not identified); also called E. coli ClpP; caseinolytic protease P; copies: 14
# Tests used:
# [1] = molecular target: the molecule itself; assay: crystal structure; apo-NmClpP 5 mg/mL in 25 mM TrisHCl pH 7.5, 100 mM KCl; well 0.2 M potassium thiocyanate, 40% MPD, room temperature; self-association (tetradecamer)
# [2] = molecular target: the molecule itself; assay: crystal structure; EcClpP 10 mg/mL in 10 mM HEPES pH 7.5, 200 mM NaCl with 5 mM ACP1-06; well 51-63% MPD, 0.1 M sodium acetate pH 5.0, room temperature; self-association (tetradecamer)
Protein,stoichiometry N [1],stoichiometry N [2]
B1,14,
B2,,14
